From patent US20230321287A1, “RADIOLABELLED GRPR-ANTAGONIST FOR USE AS THERAGNOSTIC” (NOVARTIS AG, priority 2019, published 2023)

Experiments:
[1] = clinical; conditions: for tissue uptake at 1 h / tissue uptake at 2 h / tissue uptake at 4 h / tissue uptake at 0.25 h: human, Relative radiotracer uptake
Source text: (§1) The primary objective was to characterize preliminary targeting properties of [68Ga] NeoB in patients with malignancies known to overexpress GRPR. The primary efficacy endpoints were: • Number and location of tumor lesions detected by [68Ga]-NeoBOMB1 overall and for each tumor type • Calculation of the ratio tumor/background standard uptake value (SUV) and %injected dose per gram of tissue (ID/g) and calculation of absorbed dose (mGy/MBq) in tumor overall and for each tumor type.
Accordingly, highest relative tracer uptake following administration of a bombesin antagonist is expected in pancreas, kidney, and liver (Roivainen et al, 2013).

[2] = clinical; conditions: human, tumor lesions; for SUV at 2.5 h / SUV at 1.5 h: non-dosimetry group; for SUV at 2.5 h: breast tumors, 2 h 30 minutes; for SUV at 1.5 h: prostatic tumors, 1 h 30 minutes
Source text: as §1
(§2) The dosimetry group comprised only patients with breast cancer (N=2).

[3] = target: T1, GRPR (Homo sapiens, UniProt P30550); assay: clinical; conditions: dosimetry group, breast cancer N=2
Source text: as §1, §2
Target sequence in this assay (P30550 whole entry): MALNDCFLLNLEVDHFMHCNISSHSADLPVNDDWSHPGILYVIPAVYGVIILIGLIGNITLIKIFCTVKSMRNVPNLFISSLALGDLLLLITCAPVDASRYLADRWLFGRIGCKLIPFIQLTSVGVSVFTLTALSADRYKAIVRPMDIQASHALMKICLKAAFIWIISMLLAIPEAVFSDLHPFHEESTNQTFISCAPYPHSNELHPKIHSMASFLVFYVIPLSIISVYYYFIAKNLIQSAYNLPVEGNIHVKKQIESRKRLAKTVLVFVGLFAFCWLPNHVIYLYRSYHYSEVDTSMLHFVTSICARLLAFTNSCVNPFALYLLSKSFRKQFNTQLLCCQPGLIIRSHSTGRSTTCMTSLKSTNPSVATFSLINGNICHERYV

[4] = in vivo
[5] = target: T1, GRPR; conditions: GRPR expressed in breast, prostate and GIST; non-clinical models; cited from earlier work
Target sequence in this assay (P30550 whole entry, species assumed): as the sequence (P30550 whole entry) above

[6] = clinical; conditions: human
Source text: To obtain SUVmean aorta, a spherical volume with a diameter of two (2) cm should be measured within the aortic arch. All SUVr values above one (1) are considered as positive GRPR overexpression.
SUVr is the ratio between SUV mean of each lesion detected by [^68Ga]-NeoBOMB1 and the SUVmean of the region of reference.

SMILES: CC(C)CC(CC(C)C)NC(=O)[C@H](Cc1cnc[nH]1)NC(=O)CNC(=O)[C@@H](NC(=O)[C@H](C)NC(=O)[C@H](Cc1c[nH]c2ccccc12)NC(=O)[C@H](CCC(N)=O)NC(=O)[C@@H](Cc1ccccc1)NC(=O)COCC(=O)Nc1ccc(CNC(=O)CN2CCN(CC(=O)O)CCN(CC(=O)O)CCN(CC(=O)O)CC2)cc1)C(C)C [[68Ga]-NeoB, metal not drawn]
- tissue uptake at 1 h ([1]; tumor lesion T5-liverR2, total radioactivity, patient FR01-009, tumor lesion T5-liverR2, 60 min/60.7 min actual): 0.0193 %ID/g
- tissue uptake at 2 h ([1]; tumor lesion T5-liverR2, total radioactivity, patient FR01-009, tumor lesion T5-liverR2, 120 min/123.9 min actual): 0.022 %ID/g
- tissue uptake at 4 h ([1]; tumor lesion T5-liverR2, total radioactivity, patient FR01-009, tumor lesion T5-liverR2, 240 min/207.9 min actual): 0.0212 %ID/g
- tissue uptake at 0.25 h ([1]; tumor lesion T6-sacrumL, total radioactivity, patient FR01-009, 15 min/17.8 min actual): 0.00315 %ID/g
- tissue uptake at 1 h ([1]; tumor lesion T6-sacrumL, total radioactivity, patient FR01-009, 60 min/60.7 min actual): 0.00289 %ID/g
- tissue uptake at 2 h ([1]; tumor lesion T6-sacrumL, total radioactivity, patient FR01-009, 120 min/123.9 min actual): 0.00254 %ID/g
- tissue uptake at 4 h ([1]; tumor lesion T6-sacrumL, total radioactivity, patient FR01-009, 240 min/207.9 min actual): 0.00188 %ID/g
- tissue uptake at 0.25 h ([1]; tumor lesion T7-liverP, total radioactivity, patient FR01-009, 15 min/17.8 min actual): 0.0122 %ID/g
- tissue uptake at 1 h ([1]; tumor lesion T7-liverP, total radioactivity, patient FR01-009, 60 min/60.7 min actual): 0.0118 %ID/g
- tissue uptake at 2 h ([1]; tumor lesion T7-liverP, total radioactivity, patient FR01-009, 120 min/123.9 min actual): 0.0124 %ID/g
- tissue uptake at 4 h ([1]; tumor lesion T7-liverP, total radioactivity, patient FR01-009, 240 min/207.9 min actual): 0.0108 %ID/g
- tissue uptake at 0.25 h ([1]; tumor lesion T8-liverR, total radioactivity, patient FR01-009, 15 min/17.8 min actual): 0.0108 %ID/g
- tissue uptake at 1 h ([1]; tumor lesion T8-liverR, total radioactivity, patient FR01-009, 60 min/60.7 min actual): 0.00961 %ID/g
- tissue uptake at 2 h ([1]; tumor lesion T8-liverR, total radioactivity, patient FR01-009, 120 min/123.9 min actual): 0.0109 %ID/g
- tissue uptake at 0.25 h ([1]; urinary bladder wall, total radioactivity, patient FR01-008, 15 min/38.6 min actual): 0.0313 %ID/g
- tissue uptake at 1 h ([1]; urinary bladder wall, total radioactivity, patient FR01-008, 60 min/62.6 min actual): 0.0426 %ID/g
- tissue uptake at 2 h ([1]; urinary bladder wall, total radioactivity, patient FR01-008, 120 min/123.2 min actual): 0.0214 %ID/g
- tissue uptake at 4 h ([1]; urinary bladder wall, total radioactivity, patient FR01-008, 240 min/221.1 min actual): 0.0179 %ID/g
- tissue uptake at 0.25 h ([1]; urinary bladder wall, total radioactivity, patient FR01-009, 15 min/17.8 min actual): 0.0268 %ID/g
- tissue uptake at 1 h ([1]; urinary bladder wall, total radioactivity, patient FR01-009, 60 min/60.7 min actual): 0.0648 %ID/g
- tissue uptake at 2 h ([1]; urinary bladder wall, total radioactivity, patient FR01-009, 120 min/123.9 min actual): 0.0405 %ID/g
- tissue uptake at 4 h ([1]; urinary bladder wall, total radioactivity, patient FR01-009, 240 min/207.9 min actual): 0.11 %ID/g
- Relative radiotracer uptake ([1]; patient FR01-008, Alveolar-interstitial (Lungs), 15 min/38.6 min actual): 2.1842E-03 %ID/g
- Relative radiotracer uptake ([1]; patient FR01-008, Alveolar-interstitial (Lungs), 60 min/62.6 min actual): 9.4759E-04 %ID/g
- Relative radiotracer uptake ([1]; patient FR01-008, Alveolar-interstitial (Lungs), 120 min/123.2 min actual): 6.7856E-04 %ID/g
- Relative radiotracer uptake ([1]; patient FR01-008, Alveolar-interstitial (Lungs), 240 min/221.1 min actual): 6.2082E-04 %ID/g
- Relative radiotracer uptake ([1]; patient FR01-008, Heart wall, 15 min/38.6 min actual): 6.0002E-03 %ID/g
- Relative radiotracer uptake ([1]; patient FR01-008, Heart wall, 60 min/62.6 min actual): 2.4054E-03 %ID/g
- Relative radiotracer uptake ([1]; patient FR01-008, Heart wall, 120 min/123.2 min actual): 1.6323E-03 %ID/g
- Relative radiotracer uptake ([1]; patient FR01-008, Heart wall, 240 min/221.1 min actual): 1.3018E-03 %ID/g
- Relative radiotracer uptake ([1]; patient FR01-008, Kidneys, 15 min/38.6 min actual): 6.8821E-03 %ID/g
- Relative radiotracer uptake ([1]; patient FR01-008, Kidneys, 60 min/62.6 min actual): 5.7654E-03 %ID/g
- Relative radiotracer uptake ([1]; patient FR01-008, Kidneys, 120 min/123.2 min actual): 2.3856E-03 %ID/g
- Relative radiotracer uptake ([1]; patient FR01-008, Kidneys, 240 min/221.1 min actual): 1.4872E-03 %ID/g
- Relative radiotracer uptake ([1]; patient FR01-008, Spleen, 240 min/221.1 min actual): 1.2014E-03 %ID/g
- Relative radiotracer uptake ([1]; patient FR01-008, tumor lesion T1-Chest, 15 min/38.6 min actual): 3.4664E-03 %ID/g
- Relative radiotracer uptake ([1]; patient FR01-008, tumor lesion T1-Chest, 60 min/62.6 min actual): 2.1832E-03 %ID/g
- Relative radiotracer uptake ([1]; patient FR01-008, tumor lesion T1-Chest, 120 min/123.2 min actual): 1.4935E-03 %ID/g
- Relative radiotracer uptake ([1]; patient FR01-008, tumor lesion T1-Chest, 240 min/221.1 min actual): 1.2884E-03 %ID/g
- Relative radiotracer uptake ([1]; patient FR01-008, tumor lesion T2-Left rib, 15 min/38.6 min actual): 3.8441E-03 %ID/g
- Relative radiotracer uptake ([1]; patient FR01-008, tumor lesion T2-Left rib, 60 min/62.6 min actual): 2.5064E-03 %ID/g
- Relative radiotracer uptake ([1]; patient FR01-008, tumor lesion T2-Left rib, 120 min/123.2 min actual): 1.7251E-03 %ID/g
- Relative radiotracer uptake ([1]; patient FR01-008, tumor lesion T2-Left rib, 240 min/221.1 min actual): 1.6681E-03 %ID/g
- Relative radiotracer uptake ([1]; patient FR01-008, tumor lesion T3-Spine, 15 min/38.6 min actual): 4.6895E-03 %ID/g
- Relative radiotracer uptake ([1]; patient FR01-008, tumor lesion T3-Spine, 60 min/62.6 min actual): 2.2489E-03 %ID/g
- Relative radiotracer uptake ([1]; patient FR01-008, tumor lesion T3-Spine, 120 min/123.2 min actual): 1.8497E-03 %ID/g
- Relative radiotracer uptake ([1]; patient FR01-008, tumor lesion T3-Spine, 240 min/221.1 min actual): 1.9539E-03 %ID/g
- SUV at 2.5 h ([2]; overall (breast tumors), highest SUVmax, overall): 23.1 SUV
- SUV at 1.5 h ([2]; overall locations (prostatic tumors), highest SUVmean, overall locations): 11.6 SUV
- SUV at 2 h ([2]; soft tissue/visceral (breast cancer), highest SUVmax, dosimetry group, breast cancer N=2, soft tissue/visceral, 2 h): 25.8 SUV
- SUV at 4 h ([2]; soft tissue/visceral (breast cancer), highest SUVmax, dosimetry group, breast cancer N=2, soft tissue/visceral): 26.4 SUV
- SUV at 0.25 h ([2]; soft tissue/visceral (breast cancer), highest SUVmean, dosimetry group, breast cancer N=2, soft tissue/visceral, 15 minutes): 9.24 SUV
- SUV at 4 h ([2]; soft tissue/visceral (breast cancer), highest SUVmean, dosimetry group, breast cancer N=2, soft tissue/visceral): 9.14 SUV
- SUV at 2.5 h ([2]; soft tissue/visceral (breast tumors), highest SUVmax, soft tissue/visceral): 22.1 SUV
- SUV at 1.5 h ([2]; soft tissue/visceral (prostatic tumors), highest SUVmean, soft tissue/visceral): 14 SUV
- time at which SUVmax values in lesions peaked [3]: 4 h
- time at which SUVmean values in lesions peaked [3]: 15 min
- calculated human dose extrapolated from animal model [4]: 0.039 mSv/MBq
- affinity to the GRPR [5]: high affinity
- SUV ([6]; lesion / region of reference): ~1 SUV
- SUV ([6]; lesion / spleen or MBP (aorta or heart)): > 1 SUV
